Assays:
[1] = target: Tissue factor (residues 1–209), soluble, immobilised on CNBr-activated sepharose-4B; assay: radioligand binding; 111In-DTPA-rFVIIa incubated 1 h at room temperature with TF (1–209)-sepharose (50% suspension) in assay buffer (10 mM glycyl-glycine, 150 mM NaCl, 10 mM CaCl2, 0.1% BSA, pH 7.5); beads and filtrate separated in Spin-X filter tubes and counted; median of 3 labellings
[2] = target: Tissue factor (residues 1–209), soluble, immobilised on CNBr-activated sepharose-4B; assay: radioligand binding; as a1 but after 1 hour of incubation of 111In-DTPA-rFVIIa in 270 uL human serum at room temperature before the sepharose was added; binding 1 h at room temperature; median of 3
[3] = target: Tissue factor (residues 1–209), soluble, immobilised on CNBr-activated sepharose-4B; assay: radioligand binding; as a1 but in human serum, 0 hour (no incubation in serum before the sepharose was added); binding 1 h at room temperature; median of 3

Work on “111In-DTPA-rFVIIa (111Indium-labelled, DTPA-conjugated recombinant activated coagulation factor VII) (enzyme)” yielded a binding efficiency (%) [1] of 48%, a binding efficiency (%) [2] of 36% and a binding efficiency (%) [3] of 39%.

Source: article PMC3299322
